Paper PMC2889927

Experiments:
Experiment in all cases: flow cytometry on cells; PE-conjugated OCH-loaded human CD1d tetramers on human iNKT clones; 4°C, 45 min; mean fluorescence intensity
[1] = biological target: TCR of the human iNKT clone 4C1369, on the cells of the clone (human)
[2] = biological target: TCR of the human iNKT clone DN347, on the cells of the clone (human)
[3] = biological target: TCR of the human iNKT clone 4C1227, on the cells of the clone (human)
[4] = biological target: TCR of the human iNKT clone 4C866, on the cells of the clone (human)
[5] = biological target: TCR of the human iNKT clone 4C862, on the cells of the clone (human)

OCH-tet (MFI) [1]: 1370 MFI | OCH-tet (MFI) [2]: 347 MFI | OCH-tet (MFI) [3]: 1230 MFI | OCH-tet (MFI) [4]: 866 MFI | OCH-tet (MFI) [5]: 862 MFI
B1: PE-conjugated human CD1d tetramer loaded with OCH (complex)
chain: EVPQRLFPLRCLQISSFANSSWTRTDGLAWLGELQTHSWSNDSDTVRSLKPWSQGTFSDQQWETLQHIFRVYRSSFTRDVKEFAKMLRLSYPLELQVSAGCEVHPGNASNNFFHVAFQGKDILSFQGTSWEPTQEAPLWVNLAIQVLNQDKWTRETVQWLLNGTCPQFVSGLLESGKSELKKQVKPKAWLSRGPSPGPGRLLLVCHVSGFYPKPVWVKWMRGEQEQQGTQPGDILPNADETWYLRATLDVVAGEAAGLSCRVKHSSLEGQDIVLYWGGSYTSMGLIALAVLACLLFLLIVGFTSRFKRQTSYQGVL
